IntAct's records for PubMed 18570893

Target: call3_human CALML3 (UniProt P27482)
Sequence (P27482 whole entry): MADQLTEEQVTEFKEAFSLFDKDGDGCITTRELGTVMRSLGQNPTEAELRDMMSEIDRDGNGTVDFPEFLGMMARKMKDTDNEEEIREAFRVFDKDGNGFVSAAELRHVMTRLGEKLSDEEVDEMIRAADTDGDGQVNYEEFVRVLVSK

Unconventional myosin-X (Homo sapiens), Q9HD67 F795A
effect of a mutation on the interaction: disrupting interaction
